Laboratory results taken from patent US20230357367A1.
Read-outs that look alike come from different tables or passages of the source.

Experiments:
Experiment in all cases: cell-based or functional assay
[1] = biological target: SARS-CoV-2 Delta Spike on virus particles (SARS-CoV-2)
[2] = biological target: SARS-CoV-2 Omicron BA.1 Spike on virus particles (SARS-CoV-2)
[3] = biological target: SARS-CoV-2 Omicron BA.2 Spike on pseudovirus (SARS-CoV-2)
[4] = biological target: SARS-CoV-2 Omicron BA.2.12.1 Spike on pseudovirus (SARS-CoV-2)
[5] = biological target: SARS-CoV-2 Omicron BA.4/5 Spike on pseudovirus (SARS-CoV-2)
[6] = biological target: SARS-CoV-2 Delta Spike on virus particles (SARS-CoV-2); remark: listed apart in the source
[7] = biological target: SARS-CoV-2 Omicron BA.1 Spike on virus particles (SARS-CoV-2); remark: listed apart in the source
[8] = biological target: SARS-CoV-2 Omicron BA.2 Spike on pseudovirus (SARS-CoV-2); remark: listed apart in the source
[9] = biological target: SARS-CoV-2 Omicron BA.2.12.1 Spike on pseudovirus (SARS-CoV-2); remark: listed apart in the source
[10] = biological target: SARS-CoV-2 Omicron BA.4/5 Spike on pseudovirus (SARS-CoV-2); remark: listed apart in the source
[11] = biological target: spike (SARS-CoV-2, B.1.617.2, Delta) (SARS-CoV-2)
[12] = biological target: spike (SARS-CoV-2, BA.1) (SARS-CoV-2)
[13] = biological target: spike (SARS-CoV-2, BA.1.1) (SARS-CoV-2)
[14] = biological target: spike (SARS-CoV-2, BA.2) (SARS-CoV-2)
[15] = biological target: spike (SARS-CoV-2, BA.2.12.1) (SARS-CoV-2)
[16] = biological target: spike (SARS-CoV-2, BA.2.3.20) (SARS-CoV-2)
[17] = biological target: spike (SARS-CoV-2, BA.2.75) (SARS-CoV-2)
[18] = biological target: spike (SARS-CoV-2, BA.2.75.2) (SARS-CoV-2)
[19] = biological target: spike (SARS-CoV-2, BA.4.6) (SARS-CoV-2)
[20] = biological target: spike (SARS-CoV-2, BA.4/5) (SARS-CoV-2)
[21] = biological target: spike (SARS-CoV-2, BF.7) (SARS-CoV-2)
[22] = biological target: spike (SARS-CoV-2, BF.7.14) (SARS-CoV-2)
[23] = biological target: spike (SARS-CoV-2, BN.1) (SARS-CoV-2)
[24] = biological target: spike (SARS-CoV-2, BQ.1) (SARS-CoV-2)
[25] = biological target: spike (SARS-CoV-2, BQ.1.1) (SARS-CoV-2)
[26] = biological target: spike (SARS-CoV-2, CH.1.1) (SARS-CoV-2)
[27] = biological target: spike (SARS-CoV-2, XBB.1) (SARS-CoV-2)
[28] = biological target: spike (SARS-CoV-2, XBB.1.5) (SARS-CoV-2)
[29] = biological target: spike (SARS-CoV-2, B.1.617.2, Delta) (SARS-CoV-2); remark: listed apart in the source
[30] = biological target: spike (SARS-CoV-2, B.1.617.2, Delta) (SARS-CoV-2); remark: listed apart in the source
[31] = biological target: spike (SARS-CoV-2, B.1.617.2, Delta) (SARS-CoV-2); remark: listed apart in the source
[32] = biological target: spike (SARS-CoV-2, B.1.617.2, Delta) (SARS-CoV-2); remark: listed apart in the source
[33] = biological target: spike (SARS-CoV-2, BQ.1.1) (SARS-CoV-2); remark: listed apart in the source
[34] = biological target: spike (SARS-CoV-2, XBB.1.5) (SARS-CoV-2); remark: listed apart in the source
[35] = biological target: spike (SARS-CoV-2, BQ.1.1) (SARS-CoV-2); remark: listed apart in the source
[36] = biological target: spike (SARS-CoV-2, XBB.1.5) (SARS-CoV-2); remark: listed apart in the source
[37] = biological target: spike (SARS-CoV-2, BQ.1.1) (SARS-CoV-2); remark: listed apart in the source
[38] = biological target: spike (SARS-CoV-2, XBB.1.5) (SARS-CoV-2); remark: listed apart in the source
[39] = biological target: spike (SARS-CoV-2, BQ.1.1) (SARS-CoV-2); remark: listed apart in the source
[40] = biological target: spike (SARS-CoV-2, XBB.1.5) (SARS-CoV-2); remark: listed apart in the source

AZD1061 (antibody)
% neutralization at 4.5 µg/ml, pseudovirus [1]: 100% | % neutralization at 4.5 µg/ml, pseudovirus [2]: 83.9% | % neutralization at 4.5 µg/ml, pseudovirus [3]: 99.7% | % neutralization at 4.5 µg/ml, pseudovirus [4]: 99.8% | % neutralization at 4.5 µg/ml, pseudovirus [5]: 96.7% | IC50, pseudovirus neutralization [6]: 5.9 ng/mL | IC50, pseudovirus neutralization [7]: 1220 ng/mL | IC50, pseudovirus neutralization [8]: 5.8 ng/mL | IC50, pseudovirus neutralization [9]: 5.1 ng/mL | IC50, pseudovirus neutralization [10]: 41.2 ng/mL

AZD8895 (antibody)
% neutralization at 4.5 µg/ml, pseudovirus [1]: 102% | % neutralization at 4.5 µg/ml, pseudovirus [2]: 96.5% | % neutralization at 4.5 µg/ml, pseudovirus [3]: 93.9% | % neutralization at 4.5 µg/ml, pseudovirus [4]: 94.2% | % neutralization at 4.5 µg/ml, pseudovirus [5]: 25.8% | IC50, pseudovirus neutralization [6]: 0.5 ng/mL | IC50, pseudovirus neutralization [7]: 1160 ng/mL | IC50, pseudovirus neutralization [8]: 608 ng/mL | IC50, pseudovirus neutralization [9]: 415 ng/mL

Bebtelovimab (antibody)
Neutralization - IC50, pseudovirus [5]: 0.3 ng/mL

Sotrovimab VH/VL (human IgG1 molecule expressing the same variable regions of Sotrovimab) (antibody)
% neutralization at 4.5 µg/ml, pseudovirus [1]: 101% | IC50, live virus neutralization [1]: 57.9 ng/mL | IC50, pseudovirus neutralization [1]: 65 ng/mL | % neutralization at 4.5 µg/ml, pseudovirus [2]: 99.4% | IC50, live virus neutralization [2]: 410 ng/mL | % neutralization at 4.5 µg/ml, pseudovirus [3]: 73.1% | IC50, pseudovirus neutralization [3]: 704 ng/mL | % neutralization at 4.5 µg/ml, pseudovirus [4]: 76.9% | IC50, pseudovirus neutralization [4]: 1200 ng/mL | % neutralization at 4.5 µg/ml, pseudovirus [5]: 60.5% | IC50, pseudovirus neutralization [5]: > 4500 ng/mL | Neutralization - IC50, pseudovirus [5]: 424 ng/mL | IC50, pseudovirus neutralization [6]: 12.3 ng/mL | IC50, pseudovirus neutralization [7]: 63.3 ng/mL | IC50, pseudovirus neutralization [8]: 392 ng/mL | IC50, pseudovirus neutralization [9]: 714 ng/mL | IC50, pseudovirus neutralization [10]: 666 ng/mL

bebtelovimab (antibody)
EC50, live virus neutralization [11]: 4.6 ng/mL | EC50, pseudovirus neutralization [11]: 3.8 ng/mL | EC50, pseudovirus neutralization, TMPRSS2-Vero E6, with isotype [11]: 1.6 ng/mL | EC50, pseudovirus neutralization, Vero E6, with isotype [11]: 0.63 ng/mL | EC80, pseudovirus neutralization [11]: 23 ng/mL | EC80, pseudovirus neutralization, TMPRSS2-Vero E6, with isotype [11]: 13 ng/mL | EC80, pseudovirus neutralization, Vero E6, with isotype [11]: 4.2 ng/mL | EC90, live virus neutralization [11]: 15.9 ng/mL | EC90, pseudovirus neutralization [11]: 66 ng/mL | EC90, pseudovirus neutralization, TMPRSS2-Vero E6, with isotype [11]: 43 ng/mL | EC90, pseudovirus neutralization, Vero E6, with isotype [11]: 13 ng/mL | Emax, pseudovirus neutralization (% neutralization) [11]: 99.9 | Emax, pseudovirus neutralization, TMPRSS2-Vero E6, with isotype (% neutralization) [11]: 99.7 | Emax, pseudovirus neutralization, Vero E6, with isotype (% neutralization) [11]: 99.7 | EC50, pseudovirus neutralization [12]: 0.17 ng/mL | EC80, pseudovirus neutralization [12]: 1.8 ng/mL | EC90, pseudovirus neutralization [12]: 7.2 ng/mL | Emax, pseudovirus neutralization (% neutralization) [12]: 99.8 | EC50, pseudovirus neutralization [13]: 0.12 ng/mL | EC80, pseudovirus neutralization [13]: 1.3 ng/mL | EC90, pseudovirus neutralization [13]: 5.6 ng/mL | Emax, pseudovirus neutralization (% neutralization) [13]: 99.9 | EC50, pseudovirus neutralization [14]: 0.2 ng/mL | EC80, pseudovirus neutralization [14]: 1.4 ng/mL | EC90, pseudovirus neutralization [14]: 4.4 ng/mL | Emax, pseudovirus neutralization (% neutralization) [14]: 99.9 | EC50, pseudovirus neutralization [15]: 0.2 ng/mL | EC80, pseudovirus neutralization [15]: 1.2 ng/mL | EC90, pseudovirus neutralization [15]: 3.6 ng/mL | Emax, pseudovirus neutralization (% neutralization) [15]: 99.9 | EC50, pseudovirus neutralization [16]: 12 ng/mL | EC80, pseudovirus neutralization [16]: 360 ng/mL | EC90, pseudovirus neutralization [16]: 2600 ng/mL | Emax, pseudovirus neutralization (% neutralization) [16]: 97.9 | EC50, pseudovirus neutralization [17]: 0.65 ng/mL | EC80, pseudovirus neutralization [17]: 8.2 ng/mL | EC90, pseudovirus neutralization [17]: 36 ng/mL | Emax, pseudovirus neutralization (% neutralization) [17]: 99.5 | EC50, pseudovirus neutralization [18]: 0.46 ng/mL | EC80, pseudovirus neutralization [18]: 6.3 ng/mL | EC90, pseudovirus neutralization [18]: 29 ng/mL | Emax, pseudovirus neutralization (% neutralization) [18]: 99.5 | EC50, pseudovirus neutralization [19]: 0.2 ng/mL | EC80, pseudovirus neutralization [19]: 2.5 ng/mL | EC90, pseudovirus neutralization [19]: 11 ng/mL | Emax, pseudovirus neutralization (% neutralization) [19]: 99.6 | EC50, pseudovirus neutralization [20]: 0.073 ng/mL | EC80, pseudovirus neutralization [20]: 1.2 ng/mL | EC90, pseudovirus neutralization [20]: 6.4 ng/mL | Emax, pseudovirus neutralization (% neutralization) [20]: 99.8 | EC50, pseudovirus neutralization [21]: 0.11 ng/mL | EC80, pseudovirus neutralization [21]: 1.7 ng/mL | EC90, pseudovirus neutralization [21]: 8.5 ng/mL | Emax, pseudovirus neutralization (% neutralization) [21]: 99.8 | EC50, pseudovirus neutralization [22]: 0.22 ng/mL | EC80, pseudovirus neutralization [22]: 1.4 ng/mL | EC90, pseudovirus neutralization [22]: 4.1 ng/mL | Emax, pseudovirus neutralization (% neutralization) [22]: 99.8 | EC50, pseudovirus neutralization [23]: 0.467 ng/mL | EC80, pseudovirus neutralization [23]: 5.3 ng/mL | EC90, pseudovirus neutralization [23]: 22 ng/mL | Emax, pseudovirus neutralization (% neutralization) [23]: 99.4 | Emax, pseudovirus neutralization (% neutralization) [24]: 72.2 | Emax, pseudovirus neutralization (% neutralization) [25]: 53 | Emax, pseudovirus neutralization, TMPRSS2-Vero E6, with isotype (% neutralization) [25]: 40.5 | Emax, pseudovirus neutralization, Vero E6, with isotype (% neutralization) [25]: 59.1 | Emax, pseudovirus neutralization (% neutralization) [26]: 5.32 | Emax, pseudovirus neutralization (% neutralization) [27]: 10.8 | Emax, pseudovirus neutralization (% neutralization) [28]: 2.01 | Emax, pseudovirus neutralization, TMPRSS2-Vero E6, with isotype (% neutralization) [28]: 2.93 | Emax, pseudovirus neutralization, Vero E6, with isotype (% neutralization) [28]: 4.21 | EC50, pseudovirus neutralization, Vero E6, with isotype [29]: 0.44 ng/mL | EC80, pseudovirus neutralization, Vero E6, with isotype [30]: 3.5 ng/mL | EC90, pseudovirus neutralization, Vero E6, with isotype [31]: 12 ng/mL | Emax, pseudovirus neutralization, Vero E6, with isotype (% neutralization) [32]: 99.7 | Emax, pseudovirus neutralization, Vero E6, with isotype (% neutralization) [33]: 55.6 | Emax, pseudovirus neutralization, Vero E6, with isotype (% neutralization) [34]: 0.55

sotrovimab VH/VL-hamIgG2a (antibody)
EC50, pseudovirus neutralization, Vero E6 [14]: 361 ng/mL

sotrovimab VH/VL-huIgG1 (antibody)
EC50, pseudovirus neutralization, Vero E6 [14]: 862 ng/mL

sotrovimab VH/VL-huIgG1-LS (antibody)
EC50, pseudovirus neutralization, Vero E6 [14]: 851 ng/mL | EC50, pseudovirus neutralization, Vero E6, with isotype [29]: 7.9 ng/mL | EC50, pseudovirus neutralization, Vero E6, with isotype [35]: 1200 ng/mL | EC50, pseudovirus neutralization, Vero E6, with isotype [36]: 170 ng/mL | EC80, pseudovirus neutralization, Vero E6, with isotype [30]: 42 ng/mL | EC80, pseudovirus neutralization, Vero E6, with isotype [37]: 4400 ng/mL | EC80, pseudovirus neutralization, Vero E6, with isotype [38]: 680 ng/mL | EC90, pseudovirus neutralization, Vero E6, with isotype [31]: 110 ng/mL | EC90, pseudovirus neutralization, Vero E6, with isotype [39]: 9600 ng/mL | EC90, pseudovirus neutralization, Vero E6, with isotype [40]: 1500 ng/mL | Emax, pseudovirus neutralization, Vero E6, with isotype (% neutralization) [32]: 96.9 | Emax, pseudovirus neutralization, Vero E6, with isotype (% neutralization) [33]: 71.9 | Emax, pseudovirus neutralization, Vero E6, with isotype (% neutralization) [34]: 93.4
